# Paper PMC3541406, “Solution Structure of an Archaeal DNA Binding Protein with an Eukaryotic Zinc Finger Fold”
# T1: AFV1p06 (ORF59a) (Acidianus filamentous virus 1? (AFV1, …, UniProt Q70LE5 1-59))
# T1 sequence: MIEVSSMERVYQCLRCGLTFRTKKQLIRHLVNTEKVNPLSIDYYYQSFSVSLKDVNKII
# B1: dsGCcomb (dsDNA)
# DNA 1: AGGGTGGCAGCGTCGGAGCCTCGCA
# DNA 2: TGCGAGGCTCCGACGCTGCCACCCT
# B2: dsATcomb (dsDNA)
# DNA 1: AATGATTCTAAGTATCTTAGAAACA
# DNA 2: TGTTTCTAAGATACTTAGAATCATT
# Assays:
# Details in all cases: protein: recombinant; tags: none; blunt
# AFV1p06 (ORF59a) [1] = target: T1, AFV1p06 (ORF59a); assay: competition; vs labelled dsATcomb 75 nM, 0.5 uM protein; 50 mM HEPES pH 7.4, 10 uM ZnCl2, 150 mM NaCl, 5% glycerol, 0.02% Tween, 3 mM DTT, 50 ng/uL salmon sperm DNA, 15 min at 48 C; 6% native PAGE in TBE
# AFV1p06 (ORF59a) [2] = target: T1, AFV1p06 (ORF59a); assay: EMSA; 10 uM ZnCl2, 50 ng/uL salmon sperm DNA, 75 nM probe, 0-2 uM protein; 50 mM HEPES pH 7.4, 10 uM ZnCl2, 150 mM NaCl, 5% glycerol, 0.02% Tween, 3 mM DTT, 50 ng/uL salmon sperm DNA, 15 min at 48 C; 6% native PAGE in TBE
# AFV1p06 (ORF59a) [3] = target: T1, AFV1p06 (ORF59a); assay: competition; vs labelled dsGCcomb 75 nM, 0.5 uM protein; 50 mM HEPES pH 7.4, 10 uM ZnCl2, 150 mM NaCl, 5% glycerol, 0.02% Tween, 3 mM DTT, 50 ng/uL salmon sperm DNA, 15 min at 48 C; 6% native PAGE in TBE
Binder,binding signal (AFV1p06 (ORF59a) [1]),binding signal (AFV1p06 (ORF59a) [2]),binding signal (AFV1p06 (ORF59a) [3])
B1,~0.5 molar ratio of cold dsGCcomb to hot dsATcomb giving clear signal decrease,≥ 2 fold more efficient than dsATcomb,
B2,,,~5 molar ratio of cold dsATcomb to hot dsGCcomb for similar displacement
